Measurements taken from PMC5702604 (2017).

B1: Piezo1-GST fusion protein (mouse Piezo1) [mouse] / Flag-tagged SERCA2 (SERCA2b) [not stated] (parent complex)
chain 1: MEPHVLGAGLYWLLLPCTLLAASLLRFNALSLVYLLFLLLLPWLPGPSRHSIPGHTGRLLRALLCLSLLFLVAHLAFQICLHTVPHLDQFLGQNGSLWVKVSQHIGVTRLDLKDIFNTTRLVAPDLGVLLASSLCLGLCGRLTRKAGQSRRTQELQDDDDDDDDDDEDIDAAPAVGLKGAPALATKRRLWLASRFRVTAHWLLMTSGRTLVIVLLALAGIAHPSAFSSIYLVVFLAICTWWSCHFPLSPLGFNTLCVMVSCFGAGHLICLYCYQTPFIQDMLPPGNIWARLFGLKNFVDLPNYSSPNALVLNTKHAWPIYVSPGILLLLYYTATSLLKLHKSCPSELRKETPREDEEHELELDHLEPEPQARDATQGEMPMTTEPDLDNCTVHVLTSQSPVRQRPVRPRLAELKEMSPLHGLGHLIMDQSYVCALIAMMVWSIMYHSWLTFVLLLWACLIWTVRSRHQLAMLCSPCILLYGLTLCCLRYVWAMELPELPTTLGPVSLHQLGLEHTRYPCLDLGAMLLYLLTFWLLLRQFVKEKLLKKQKVPAALLEVTVADTEPTQTQTLLRSLGELVTGIYVKYWIYVCAGMFIVVSFAGRLVVYKIVYMFLFLLCLTLFQVYYTLWRKLLRVFWWLVVAYTMLVLIAVYTFQFQDFPTYWRNLTGFTDEQLGDLGLEQFSVSELFSSILIPGFFLLACILQLHYFHRPFMQLTDLEHVPPPGTRHPRWAHRQDAVSEAPLLEHQEEEEVFREDGQSMDGPHQATQVPEGTASKWGLVADRLLDLAASFSAVLTRIQVFVRRLLELHVFKLVALYTVWVALKEVSVMNLLLVVLWAFALPYPRFRPMASCLSTVWTCIIIVCKMLYQLKIVNPHEYSSNCTEPFPNNTNLQPLEINQSLLYRGPVDPANWFGVRKGYPNLGYIQNHLQILLLLVFEAVVYRRQEHYRRQHQQAPLPAQAVCADGTRQRLDQDLLSCLKYFINFFFYKFGLEICFLMAVNVIGQRMNFMVILHGCWLVAILTRRRREAIARLWPNYCLFLTLFLLYQYLLCLGMPPALCIDYPWRWSKAIPMNSALIKWLYLPDFFRAPNSTNLISDFLLLLCASQQWQVFSAERTEEWQRMAGINTDHLEPLRGEPNPIPNFIHCRSYLDMLKVAVFRYLFWLVLVVVFVAGATRISIFGLGYLLACFYLLLFGTTLLQKDTRAQLVLWDCLILYNVTVIISKNMLSLLSCVFVEQMQSNFCWVIQLFSLVCTVKGYYDPKEMMTRDRDCLLPVEEAGIIWDSICFFFLLLQRRIFLSHYFLHVSADLKATALQASRGFALYNAANLKSINFHRQIEEKSLAQLKRQMKRIRAKQEKYRQSQASRGQLQSKDPQDPSQEPGPDSPGGSSPPRRQWWRPWLDHATVIHSGDYFLFESDSEEEEEALPEDPRPAAQSAFQMAYQAWVTNAQTVLRQRRERARQERAEQLASGGDLNPDVEPVDVPEDEMAGRSHMMQRVLSTMQFLWVLGQATVDGLTRWLRAFTKHHRTMSDVLCAERYLLTQELLRVGEVRRGVLDQLYVGEDEATLSGPVETRDGPSTASSGLGAEEPLSSMTDDTSSPLSTGYNTRSGSEEIVTDAGDLQAGTSLHGSQELLANARTRMRTASELLLDRRLHIPELEEAERFEAQQGRTLRLLRAGYQCVAAHSELLCYFIIILNHMVTASAASLVLPVLVFLWAMLTIPRPSKRFWMTAIVFTEVMVVTKYLFQFGFFPWNSYVVLRRYENKPYFPPRILGLEKTDSYIKYDLVQLMALFFHRSQLLCYGLWDHEEDRYPKDHCRSSVKDREAKEEPEAKLESQSETGTGHPKEPVLAGTPRDHIQGKGSIRSKDVIQDPPEDLKPRHTRHISIRFRRRKETPGPKGTAVMETEHEEGEGKETTERKRPRHTQEKSKFRERMKAAGRRLQSFCVSLAQSFYQPLQRFFHDILHTKYRAATDVYALMFLADIVDIIIIIFGFWAFGKHSAATDIASSLSDDQVPQAFLFMLLVQFGTMVIDRALYLRKTVLGKLAFQVVLVVAIHIWMFFILPAVTERMFSQNAVAQLWYFVKCIYFALSAYQIRCGYPTRILGNFLTKKYNHLNLFLFQGFRLVPFLVELRAVMDWVWTDTTLSLSNWMCVEDIYANIFIIKCSRETEKKYPQPKGQKKKKIVKYGMGGLIILFLIAIIWFPLLFMSLIRSVVGVVNQPIDVTVTLKLGGYEPLFTMSAQQPSIVPFTPQAYEELSQQFDPYPLAMQFISQYSPEDIVTAQIEGSSGALWRISPPSRAQMKQELYNGTADITLRFTWNFQRDLAKGGTVEYTNEKHTLELAPNSTARRQLAQLLEGRPDQSVVIPHLFPKYIRAPNGPEANPVKQLQPDEEEDYLGVRIQLRREQVGTGASGEQAGTKASDFLEWWVIELQDCKADCNLLPMVIFSDKVSPPSLGFLAGYGIVGLYVSIVLVVGKFVRGFFSEISHSIMFEELPCVDRILKLCQDIFLVRETRELELEEELYAKLIFLYRSPETMIKWTRERE
chain 2: MENAHTKTVEEVLGHFGVNESTGLSLEQVKKLKERWGSNELPAEEGKTLLELVIEQFEDLLVRILLLAACISFVLAWFEEGEETITAFVEPFVILLILVANAIVGVWQERNAENAIEALKEYEPEMGKVYRQDRKSVQRIKAKDIVPGDIVEIAVGDKVPADIRLTSIKSTTLRVDQSILTGESVSVIKHTDPVPDPRAVNQDKKNMLFSGTNIAAGKAMGVVVATGVNTEIGKIRDEMVATEQERTPLQQKLDEFGEQLSKVISLICIAVWIINIGHFNDPVHGGSWIRGAIYYFKIAVALAVAAIPEGLPAVITTCLALGTRRMAKKNAIVRSLPSVETLGCTSVICSDKTGTLTTNQMSVCRMFILDRVEGDTCSLNEFTITGSTYAPIGEVHKDDKPVNCHQYDGLVELATICALCNDSALDYNEAKGVYEKVGEATETALTCLVEKMNVFDTELKGLSKIERANACNSVIKQLMKKEFTLEFSRDRKSMSVYCTPNKPSRTSMSKMFVKGAPEGVIDRCTHIRVGSTKVPMTSGVKQKIMSVIREWGSGSDTLRCLALATHDNPLRREEMHLEDSANFIKYETNLTFVGCVGMLDPPRIEVASSVKLCRQAGIRVIMITGDNKGTAVAICRRIGIFGQDEDVTSKAFTGREFDELNPSAQRDACLNARCFARVEPSHKSKIVEFLQSFDEITAMTGDGVNDAPALKKAEIGIAMGSGTAVAKTASEMVLADDNFSTIVAAVEEGRAIYNNMKQFIRYLISSNVGEVVCIFLTAALGFPEALIPVQLLWVNLVTDGLPATALGFNPPDLDIMNKPPRNPKEPLISGWLFFRYLAIGCYVGAATVGAAAWWFIAADGGPRVSFYQLSHFLQCKEDNPDFEGVDCAIFESPYPMTMALSVLVTIEMCNALNSLSENQSLLRMPPWENIWLVGSICLSMSLHFLILYVEPLPLIFQITPLNVTQWLMVLKISLPVILMDETLKFVARNYLEPGKECVQPATKSCSFSACTDGISWPFVLLIMPLVIWVYSTDTNFSDMFWS

Variants of: B1
Assay: GST pull-down, western blot quantification; co-expressed Flag-SERCA2; repeated 3 times; mean ± s.e.m.; parent: 1; read off a plot

| ratio to parent | Variant |
| --- | --- |
| ~0.4 | chain 1 E2172A, chain 1 K2173A, chain 1 K2174A, chain 1 Y2175A, chain 1 P2176A, chain 1 Q2177A, chain 1 P2178A, chain 1 K2179A, chain 1 G2180A, chain 1 Q2181A |
| ~0.3 | chain 1 K2182A, chain 1 K2183A, chain 1 K2184A, chain 1 K2185A |
